This is an account of results in PMC3170469.

The target in experiment [1] is hydrogen peroxide treated recombinant human interferon beta-1a (human) (UniProt P01574). As to the kind of experiment: SEC. For orientation: In gel filtration, larger molecules generally elute earlier.
Experiment [2] deals with metal-catalyzed oxidized recombinant human interferon beta-1a (human) (UniProt P01574). Nature of the experiment: SEC.

On to “hydrogen peroxide treated recombinant human interferon beta-1a (from UniProt P01574 22-187) (natural protein)”, for which the oligomer fraction (%) in experiment [1] was 7%. For “metal-catalyzed oxidized recombinant human interferon beta-1a (from UniProt P01574 22-187) (natural protein)”, the oligomer fraction (%) in experiment [2] stood at 68%.
